Publication PMC3485628, “Perlecan domain 1 recombinant proteoglycan augments BMP-2 activity and osteogenesis” (BMC Biotechnology, 2012)

Biological target: T1, recombinant human perlecan domain 1 proteoglycan rhPln.247 (human, UniProt P98160 22-247, heparan sulfate and chondroitin sulfate glycosaminoglycan chains (CS:HS ratio of approximately 2:1); attachment residues not given)
T1 construct: signal peptide in the construct; The secreted product has probably lost the signal peptide; also called rhPln.D1; rPlnD1; source: HEK 293 cells, adenoviral expression system, purified
T1 sequence (P98160 22-247): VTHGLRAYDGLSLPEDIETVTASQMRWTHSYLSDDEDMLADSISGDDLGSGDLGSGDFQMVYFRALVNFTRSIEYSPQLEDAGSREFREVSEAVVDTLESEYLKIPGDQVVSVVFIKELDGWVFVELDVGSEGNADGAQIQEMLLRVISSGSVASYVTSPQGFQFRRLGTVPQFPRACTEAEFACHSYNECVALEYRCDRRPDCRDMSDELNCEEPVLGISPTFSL
Assay: ELISA; rhPln.247 coated directly on polystyrene microtiter wells overnight at 4°C in PBS/N3 at about 1-2 ug/ml; rhBMP-2 or rhBMP-7 serially diluted; retained BMP detected with biotinylated anti-BMP antibodies; background without rhPln.247 subtracted; apparent Kd
Settings: both partners purified

fold by which rhBMP-2 binds more tightly than rhBMP-7: ~10 fold
B1: recombinant human bone morphogenetic protein-7 (ligand)
chain: STGSKQRSQNRSKTPKNQEALRMANVAENSSSDQRQACKKHELYVSFRDLGWQDWIIAPEGYAAYYCEGECAFPLNSYMNATNHAIVQTLVHFINPETVPKPCCAPTQLNAISVLYFDDSSNVILKKYRNMVVRACGCH
notes: bone morphogenetic protein 7, human, recombinant; also called rhBMP-7; rBMP-7; source: bought: R&D Systems
